From PMC6318328, “Structural insights into trans-histone regulation of H3K4 methylation by unique histone H4 binding of MLL3/4” (Nature Communications, 2019)

B1: MLL4 ePHD6: extended PHD6 domain of MLL4 (protein)
chain: VSCMQCGAASPGFHCEWQNSYTHCGPCASLVTCPICHAPYVEEDLLIQCRHCERWMHAGCESLFTEDDVEQAADEGFDCVSCQPYVVKPV
modifications: left off: GST, N-terminal, cleaved | His tag, N-terminal, cleaved
B2: MLL3_C: C terminus of MLL3 with the catalytic SET domain (protein)
chain: DHTFRVGSLIFHTIGQLLPQQMQAFHSPKALFPVGYEASRLYWSTRYANRRCRYLCSIEEKDGRPVFVIRIVEQGHEDLVLSDISPKGVWDKILEPVACVRKKSEMLQLFPAYLKGEDLFGLTVSAVARIAESLPGVEACENYTFRYGRNPLMELPLAVNPTGCARSEPKMSAHVKRFVLRPHTLNSTSTSKSFQSTVTGELNAPYSKQFVHSKSSQYRKMKTEWKSNVYLARSRIQGLGLYAARDIEKHTMVIEYIGTIIRNEVANRKEKLYESQNRGVYMFRMDNDHVIDATLTGGPARYINHSCAPNCVAEVVTFERGHKIIISSSRRIQKGEELCYDYKFDFEDDQHKIPCHCGAVNCRKWMN
modifications: left off: FLAG, end not stated, kept
notes: C terminus of MLL3 with the catalytic SET domain
B3: MLL3 ePHD6: extended PHD6 domain of MLL3 (protein)
chain: VWCRHCGATSAGLRCEWQNNYTQCAPCASLSSCPVCYRNYREEDLILQCRQCDRWMHAVCQNLNTEEEVENVADIGFDCSMCRPYMPASN
modifications: left off: GST, N-terminal, cleaved | His tag, N-terminal, cleaved

Experiments:
[1] = Gel filtration, oligomeric state in solution; type: physicochemical; settings: Superdex200 10/300 GL, 20 mM Tris pH 7.5, 150 mM NaCl, 50 μM ZnCl2, 1 mM DTT
Experimental: Supplementary Fig. 3 Superimposition of gel-filtration curves of PHD6 and ePHD6 domains of MLL3 and MLL4. Gel filtration chromatography of MLL3 ePHD6 (red), PHD6 (pink), MLL4 ePHD6 (brown), PHD6 (green) and protein molecular weight standards (blue, Bio-Rad). Samples were loaded to the Superdex200 10/300 GL (GE Healthcare) column in the buffer containing 20 mM Tris, pH 7.5, 150 mM NaCl, 50 μM ZnCl2,and1mMDTT. […]

[2] = tested on: recombinant nucleosomes (histone H3K4); assay: In vitro histone methyltransferase (HMT) assay of MLL3/MLL4 constructs; type: biochemical; settings: recombinant nucleosomes 0.5 μg, 2.5 μCi [3H]-SAM, 30 °C, 16 h, autoradiography (Fig. 3b, c)
Experimental: Mammalian expression plasmids encoding different fusions of MLL3 PHD and SET domains were subcloned into the pFLAG-CMV2 vector (Sigma-Aldrich, E7033) and were transiently expressed in HEK 293T cells (ATCC® ACS-4500™) by using Lipofectamine 2000 (ThermoFisher Scientific, 11668027) according to manufacturer’s protocol. Two days after transfection, cells were harvested and then lysed by mammalian lysis buffer (20 mM Tris-HCl, 137 mM NaCl, 1.5 mM MgCl2, 1 mM EDTA, 10% glycerol, 1% Triton X-100, 0.2 mM PMSF, 1 μg mL^−1 aprotinin, 2.5 μg mL^−1 leupeptin, and 1 μg mL^−1 pepstatin at pH 8.0). FLAG immunoprecipitation (FLAG IP) was performed in a similar way as described previously. In brief, total cell lysates were incubated with anti-FLAG M2 Affinity Gel (Sigma-Aldrich, A2220) in 4 °C for 5 h and were extensively washed with BC500 (20 mM Tris-HCl, 500 mM KCl, 1.5 mM MgCl2, 0.2 mM EDTA, 10% glycerol, 0.2 mM PMSF at pH 8.0). […]
HMT assay was performed according to a previously described method with minor modifications. […] The signals for HMT activity were detected by autoradiography. The input of the MLL3/4 proteins and nucleosomes were detected by mouse monoclonal anti-FLAG M2 (Sigma-Aldrich, F3165, 1:1000) and rabbit polyclonal anti-H3 antibody (Abcam, ab1791, 1:1000), respectively. […]

Molecule	oligomeric state in solution [1]	nucleosomal methyltransferase activity [2]
B1	dimer in solution	
B2		did not show any detectable nucleosomal methylation activity
B3	monomer in solution	
